According to patent publication US20070060518A1 (MANNKIND, published 2007):
Where two headings read alike, the source gives them in different places. Numbered stars: 1 amine (or outer) side, 2 acyl side, 3 side chain; on linkers, the order of the positions; unused ones are H or OH. Square brackets hold non-standard residues; d marks the D form. Ends that are not written are not given here. O‑methyltyrosine = COc1ccc(C[C@H](N[*:1])C(=O)[*:2])cc1; Phe(4-F) = N[C@@H](Cc1ccc(F)cc1)C(=O)O; Phg = N[C@H](C(=O)O)c1ccccc1; Nle = CCCC[C@H](N)C(=O)O; Nva = CCC[C@H](N)C(=O)O

Columns and labels:
[1] = target: T1, HLA-A*0201 on T2 cells (human); experiment: T2 cell binding assay, flow cytometry
T1 construct: whole, on cells; also called HLA-A2

[2] = target: T1, HLA-A*0201 on T2 cells; experiment: T2 cell stability assay, flow cytometry
[3] = target: T1, HLA-A*0201 on T2 cells; experiment: T2 cell binding assay, flow cytometry; remark: listed apart in the source
[4] = target: T1, HLA-A*0201 on T2 cells; experiment: T2 cell stability assay, flow cytometry; remark: listed apart in the source
[5] = target: T1, HLA-A*0201 on T2 cells; experiment: T2 cell binding assay, flow cytometry; remark: listed apart in the source
[6] = target: T2, HLA-A*0201 class I monomer on avidin-coated plates (iTopia Epitope Discovery System) (human); experiment: iTopia off-rate assay
T2 construct: Bought kit (Beckman Coulter); also called A0201 restricted MHC Class 1 molecules; MHC monomer
Procedure: (§1) The plates were then incubated on the allele-specific monomer plates at 37° C. The plates were measured at multiple time points (0, 0.5, 1, 1.5, 2, 4, 6 and 8 hrs) for relative fluorescence intensity. The time required for 50% of the peptide to dissociate from the MHC monomer is defined as the T1/2 value (hrs).

[7] = target: T2, HLA-A*0201 class I monomer on …; experiment: iTopia affinity and off-rate assays (FIG. 28)
Procedure: (§2) Avidin-coated microtiter plates containing class I monomer loaded with a so-called placeholder peptide were used to evaluate peptide binding, affinity and off-rate. […] Assay buffers, anti-MHC-FITC mAb and beta2-microglobulin and control peptides were also supplied with the kits. Binding Assay:
as §1
(§3) In some cases, the reported values are the average of two determinations.

[8] = target: T2, HLA-A*0201 class I monomer on …; experiment: iTopia off-rate assay (FIG. 21)
Procedure: as §2, §1

[9] = target: T2, HLA-A*0201 class I monomer on …; experiment: iTopia affinity and off-rate assays (FIG. 19)
Procedure: as §2, §1

[10] = target: T2, HLA-A*0201 class I monomer on …; experiment: iTopia assays (FIG. 20)
[11] = target: T2, HLA-A*0201 class I monomer on …; experiment: iTopia assays (FIG. 21)
[12] = target: T2, HLA-A*0201 class I monomer on …; experiment: iTopia off-rate assay (FIG. 20)
Procedure: as §2, §1

[13] = target: T2, HLA-A*0201 class I monomer on …; experiment: iTopia affinity assay (FIG. 26)
Source text: as §2, §3

[14] = target: T2, HLA-A*0201 class I monomer on …; experiment: iTopia binding and affinity assays (FIG. 26)
Source text: as §2
(§4) This assay measures the ability of individual peptides to bind HLA molecules under standardized optimal binding conditions. Monomer-coated plates were first stripped, releasing the placeholder peptide and leaving only the MHC heavy chain bound to the plate. Test peptides were then introduced under optimal folding conditions, along with the anti-MHC-FITC mAb. […] The anti-MHC-FITC mAb binds preferentially to a refolded MHC complex. Therefore, the fluorescence intensity resulting from each peptide was related to the peptide's ability to form complex with MHC molecule. Each peptide's binding was evaluated relative to the positive control peptide provided in the kit, and the results were expressed “% binding”.

[15] = target: T2, HLA-A*0201 class I monomer on …; experiment: iTopia binding assay (FIG. 26)
Source text: as §2, §4

Binder: KISEKIFYV [SSX2 41-49 (A42I)]
- EC50 [1]: 8.8 µM
- Relative affinity (1/RA) [1]: 1.7
- Stability (T1/2) [2]: 22.5 h

Binder: KLSEKIFYI [SSX2 41-49 (A42L, V49I)]
- Relative affinity (1/RA) [3]: 2.6

Binder: KMSEKIFYV [SSX2 41-49 (A42M)]
- EC50 [1]: 8.8 µM
- Relative affinity (1/RA) [1]: 1.7
- Stability (T1/2) [2]: 22.5 h

Binder: KVSEKIFYI [SSX2 41-49 (A42V, V49I)]
- Relative affinity (1/RA) [3]: 1.1

Binder: FASEKIFYV [SSX2 41-49 (K41F)]
- Stability (T1/2) [4]: > 24 h
- EC50 [5]: 9.55 µM
- Relative affinity (1/RA) [5]: 1.5

Binder: YASEKIFYV [SSX2 41-49 (K41Y)]
- Stability (T1/2) [4]: > 24 h
- EC50 [5]: 8.74 µM
- Relative affinity (1/RA) [5]: 1.7

Binder: KASEKIFYI [SSX2 41-49 (V49I)]
- Relative affinity (1/RA) [3]: 1

Binder: S[Nva]LMWITQV (also called SNvaLMWITQV) [NY-ESO-1 157-165 (L158Nva, C165V)]
- Half-Life (T1/2) [6]: 17 h

B1: Prame 425-433 (L426Nva, L433Nle) (peptide)
peptide: S[Nva]LQHLIG[Nle]
notes: also called S{Nva}LQHLIG{Nle}; L426Nva L433Nle analog
- Half-Life (T1/2) [6]: 16.9 h

Binder: T[Nva]LQHLIG[Nle] (also called T{Nva}LQHLIG{Nle}) [PRAME425-433 S425T L426Nva L433Nle analog]
- binding result [7]: binds

Binder: YMDGTMSQV [Tyrosinase 369-377]
- Half-Life (T1/2) [6]: 14.4 h

Binder: YMDGTMSQX (norvaline (Nva) at position 377 (P9)) [Tyrosinase 369-377 (V377Nva)]
- Half-Life (T1/2) [6]: 14.7 h

Binder: ALWSIPVHPV [PSMA288-297 analog with Ala at P1, Trp at P3 and Val at PΩ]
- binding result [8]: binds

Binder: AVPSIPVHPV [PSMA288-297 analog with Ala at P1, Val at P2 and Val at PΩ]
- binding result [8]: binds

Binder: GMPSIPVHPI [PSMA288-297 analog with Met at P2]
- binding result [9]: binds

Binder: GLWSIPVHPV [PSMA288-297 analog with Trp at P3 and Val at PΩ]
- binding result [10]: binds

Binder: G[Nva]WSIPVHPV [PSMA288-297 Nva/W/V analog (Nva at P2, Trp at P3, Val at PΩ)]
- binding result [11]: binds

Binder: A[Nva]PSIPVHPV [PSMA288-297 analog with Ala at P1, Nva at P2 and Val at PΩ]
- binding result [8]: binds

Binder: GLPSIPVHPX (norvaline (Nva) at PΩ (P10), also called I297Nva) [PSMA288-297 analog with Nva at PΩ]
- binding result [9]: binds

Binder: ALWSIPVHP[Nva] [PSMA288-297 analog with Ala at P1, Trp at P3 and Nva at PΩ]
- binding result [8]: binds

Binder: AVPSIPVHP[Nva] [PSMA288-297 analog with Ala at P1, Val at P2 and Nva at PΩ]
- binding result [8]: binds

Binder: GLWSIPVHP[Nva] [PSMA288-297 analog with Trp at P3 and Nva at PΩ]
- binding result [10]: binds

Binder: GXPSIPVHPV (norleucine (Nle) at P2) [PSMA288-297 analog with Nle at P2 and Val at PΩ]
- binding result [12]: binds

Binder: XLPSIPVHPX (aminobutyric acid (Abu) at P1; norvaline (Nva) at PΩ (P10)) [PSMA288-297 analog with Abu at P1 and Nva at PΩ]
- binding result [12]: binds

Binder: A[Nva]WSIPVHPI [PSMA288-297 analog with Ala at P1, Nva at P2 and Trp at P3]
- binding result [8]: binds

Binder: A[Nle]WSIPVHPI [PSMA288-297 analog with Ala at P1, Nle at P2 and Trp at P3]
- binding result [8]: binds

Binder: SLLQHLIGA [PRAME425-433 analog with Ala at PΩ]
- fold change of ED50 against the native peptide [13]: > 10 fold

Binder: SILQHLIGL [PRAME425-433 analog with Ile at P2]
- binding result [14]: binds

Binder: SLLQHLIGI [PRAME425-433 analog with Ile at PΩ]
- binding result [15]: binds

Binder: KLLQHLIGL (also called Lys P1 analog) [PRAME425-433 analog with Lys at P1]
- fold change of ED50 against the native peptide [13]: ~6 fold

Binder: SMLQHLIGL [PRAME425-433 analog with Met at P2]
- binding result [14]: binds

Binder: TLLQHLIGL [PRAME425-433 analog with Thr at P1]
- binding result [14]: binds

Binder: YLLQHLIGL [PRAME425-433 analog with Tyr at P1]
- binding result [14]: binds

Binder: SVLQHLIGL [PRAME425-433 analog with Val at P2]
- binding result [15]: binds

Binder: SLLQHLIGV [PRAME425-433 analog with Val at PΩ]
- binding result [15]: binds

Binder: [Phg]ASEKIFYV [SSX2 41-49 (K41(Phg))]
- Stability (T1/2) [4]: > 24 h
- EC50 [5]: 5.83 µM
- Relative affinity (1/RA) [5]: 2.5

Binder: [Phe(4-F)]ASEKIFYV [SSX2 41-49 (K41(Phe-4F))]
- Stability (T1/2) [4]: > 24 h

Binder: [O‑methyltyrosine]ASEKIFYV [SSX2 41-49 (K41(O-methyl Tyr))]
- Stability (T1/2) [4]: 20 h
- EC50 [5]: 19.5 µM
- Relative affinity (1/RA) [5]: 0.8
